Relative light units of bound cells (~7.5 pmol MAdCAM-1 coated) data for one substance are collected here from paper PMC5526109.

For this test, the target named is MAdCAM-1 (mucosal addressin cell adhesion molecule-1) (UniProt Q13477). Nature of the test: cell adhesion assay.
UniProt Q13477, sequence (Q13477 19-382): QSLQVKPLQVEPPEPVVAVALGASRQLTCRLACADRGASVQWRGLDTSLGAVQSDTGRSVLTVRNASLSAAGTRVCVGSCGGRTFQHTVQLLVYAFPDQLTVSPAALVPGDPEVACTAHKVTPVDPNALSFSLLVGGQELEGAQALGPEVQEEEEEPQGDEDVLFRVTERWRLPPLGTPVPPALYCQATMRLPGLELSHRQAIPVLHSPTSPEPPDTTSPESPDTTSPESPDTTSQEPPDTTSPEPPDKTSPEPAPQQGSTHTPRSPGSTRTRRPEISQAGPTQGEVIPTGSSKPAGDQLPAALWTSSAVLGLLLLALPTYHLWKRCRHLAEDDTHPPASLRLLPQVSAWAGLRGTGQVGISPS

On to “α4β7 integrin (from UniProt P13612 34-1032; P26010 20-798) (receptor)”, for which the relative light units of bound cells (~7.5 pmol MAdCAM-1 coated) came to 1e+06 RLU.
